Measurements as given in patent publication US20230303715A1.

Legend:
[1] = target: soluble human FcRn (human) (UniProt P55899); assay: SPR ProteOn, Ab on protein L, pH 6.0
FcγRIIa [2] = target: FcγRIIa (UniProt P12318); assay: SPR Biacore, Ab on HER2 chip
FcγRIIb [3] = target: FcγRIIb (UniProt P31994); assay: SPR Biacore, Ab on HER2 chip
FcγRIIb [4] = target: FcγRIIb (UniProt P31994); assay: SPR; KD wt/KD mut vs 16588
FcγRIIa [5] = target: FcγRIIa (UniProt P12318); assay: SPR; KD wt/KD mut vs 16588

Chain of soluble human FcRn (human) (P55899 24-297 limits assumed, chain 1 of 2): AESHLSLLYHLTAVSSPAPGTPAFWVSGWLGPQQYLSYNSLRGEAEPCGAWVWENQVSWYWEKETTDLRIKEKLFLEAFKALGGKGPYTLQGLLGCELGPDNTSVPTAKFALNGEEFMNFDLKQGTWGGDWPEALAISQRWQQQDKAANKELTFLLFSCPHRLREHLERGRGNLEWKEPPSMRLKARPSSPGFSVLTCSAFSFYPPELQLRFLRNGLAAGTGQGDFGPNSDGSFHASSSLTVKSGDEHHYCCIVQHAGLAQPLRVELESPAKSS
Chain of soluble human FcRn (human) (P61769 21-119 limits assumed, chain 2 of 2, further chain): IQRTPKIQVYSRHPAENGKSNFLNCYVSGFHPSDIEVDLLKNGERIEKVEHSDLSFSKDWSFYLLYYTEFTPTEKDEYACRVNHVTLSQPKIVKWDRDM
Chain of FcγRIIb (P31994 43-217 limits assumed): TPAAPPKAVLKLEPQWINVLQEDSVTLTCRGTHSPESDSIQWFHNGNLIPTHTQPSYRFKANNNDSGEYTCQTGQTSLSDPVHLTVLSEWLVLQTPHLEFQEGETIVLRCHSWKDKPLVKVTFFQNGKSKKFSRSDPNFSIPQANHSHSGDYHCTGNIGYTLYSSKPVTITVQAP

## trastuzumab Scaffold 1 variant 19303 (A287F) (antibody)
[1]
  Kd: 690 nM
FcγRIIa [2]
  Kd: 1070 nM

## trastuzumab Scaffold 1 variant 19304 (T289W) (antibody)
FcγRIIb [3]
  Kd: 3460 nM

## trastuzumab Scaffold 1 variant 19305 (A339W) (antibody)
FcγRIIb [4]
  Relative FcγRIIb Binding: 1.81
FcγRIIa [5]
  Relative FcγRIIa Binding: 1.72
FcγRIIb [3]
  Kd: 2100 nM
FcγRIIa [2]
  Kd: 640 nM

## trastuzumab Scaffold 1 variant 19306 (A339Q) (antibody)
FcγRIIb [3]
  Kd: 3810 nM
FcγRIIa [2]
  Kd: 1040 nM

## trastuzumab Scaffold 1 variant 19307 (A378W) (antibody)
FcγRIIb [4]
  Relative FcγRIIb Binding: 0.7
FcγRIIa [5]
  Relative FcγRIIa Binding: 0.76
FcγRIIb [3]
  Kd: 5460 nM
FcγRIIa [2]
  Kd: 1450 nM

## trastuzumab Scaffold 1 variant 19308 (M428F) (antibody)
[1]
  Kd: 464 nM
FcγRIIb [4]
  Relative FcγRIIb Binding: 1.08
FcγRIIa [5]
  Relative FcγRIIa Binding: 1.06
FcγRIIb [3]
  Kd: 3510 nM
FcγRIIa [2]
  Kd: 1030 nM

## trastuzumab Scaffold 1 variant 19309 (L242I) (antibody)
FcγRIIb [3]
  Kd: 5070 nM

## trastuzumab Scaffold 1 variant 19310 (T250V) (antibody)
[1]
  Kd: 821 nM
FcγRIIb [4]
  Relative FcγRIIb Binding: 1.24
FcγRIIa [5]
  Relative FcγRIIa Binding: 1.22
FcγRIIb [3]
  Kd: 3050 nM
FcγRIIa [2]
  Kd: 899 nM

## trastuzumab Scaffold 1 variant 19311 (F275I) (antibody)
FcγRIIb [4]
  Relative FcγRIIb Binding: 1.71
FcγRIIa [5]
  Relative FcγRIIa Binding: 1.48
FcγRIIb [3]
  Kd: 2220 nM
FcγRIIa [2]
  Kd: 745 nM

## trastuzumab Scaffold 1 variant 19312 (V279I) (antibody)
FcγRIIb [4]
  Relative FcγRIIb Binding: 1.02
FcγRIIa [5]
  Relative FcγRIIa Binding: 0.94
FcγRIIb [3]
  Kd: 3720 nM
FcγRIIa [2]
  Kd: 1170 nM

## trastuzumab Scaffold 1 variant 19313 (V308I) (antibody)
FcγRIIb [4]
  Relative FcγRIIb Binding: 0.94
FcγRIIa [5]
  Relative FcγRIIa Binding: 0.89
FcγRIIb [3]
  Kd: 4030 nM
FcγRIIa [2]
  Kd: 1240 nM

## trastuzumab Scaffold 1 variant 19314 (Y319F) (antibody)
FcγRIIb [3]
  Kd: 3490 nM

## trastuzumab Scaffold 1 variant 19316 (M252S) (antibody)
FcγRIIb [4]
  Relative FcγRIIb Binding: 1.01
FcγRIIa [5]
  Relative FcγRIIa Binding: 0.94
FcγRIIb [3]
  Kd: 3750 nM
FcγRIIa [2]
  Kd: 1160 nM

## trastuzumab Scaffold 1 variant 19317 (L309Q) (antibody)
[1]
  Kd: 1000 nM
FcγRIIb [4]
  Relative FcγRIIb Binding: 1.03
FcγRIIa [5]
  Relative FcγRIIa Binding: 0.96
FcγRIIb [3]
  Kd: 3680 nM
FcγRIIa [2]
  Kd: 1150 nM

## trastuzumab Scaffold 1 variant 19318 (L314M) (antibody)
FcγRIIb [4]
  Relative FcγRIIb Binding: 0.66
FcγRIIa [5]
  Relative FcγRIIa Binding: 0.55
FcγRIIb [3]
  Kd: 5760 nM
FcγRIIa [2]
  Kd: 2020 nM

## trastuzumab Scaffold 1 variant 19319 (K334R) (antibody)
FcγRIIb [4]
  Relative FcγRIIb Binding: 1.29
FcγRIIa [5]
  Relative FcγRIIa Binding: 1.17
FcγRIIb [3]
  Kd: 2950 nM
FcγRIIa [2]
  Kd: 941 nM

## trastuzumab Scaffold 1 variant 19320 (L242C_K334C) (antibody)
[1]
  Kd: 645 nM
FcγRIIb [4]
  Relative FcγRIIb Binding: 0.99
FcγRIIa [5]
  Relative FcγRIIa Binding: 0.71
FcγRIIb [3]
  Kd: 3820 nM
FcγRIIa [2]
  Kd: 1540 nM

## trastuzumab Scaffold 1 variant 19321 (A287C_L306C) (antibody)
[1]
  Kd: 693 nM
FcγRIIb [4]
  Relative FcγRIIb Binding: 1.03
FcγRIIa [5]
  Relative FcγRIIa Binding: 0.98
FcγRIIb [3]
  Kd: 3670 nM
FcγRIIa [2]
  Kd: 1130 nM
